To fix the notation:
B1: TPR 5TU (parent)
chain: GGAUCUUCUCGAUCUAACAAAAAAGACAAAUCUGCCACAAAGCUUGAGAGCAUCUUCGGAUGCAGAGGCGGCAGCCUUCGGUGGCGCGAUAGCGCCAACGUUCUCAACUAUGACACGCAAAACGCGUGCUCCGUUGAAUGGAGUUUAUCAUG

Fewer inactive variants are shown than the library holds.

Variants of B1 are the subject of this data set. The experiment in a line: polymerase ribozyme fitness, log enrichment relative to wild type (log ratio); higher = more active; in vitro selection for triplet polymerase activity. A digest of the protocol:
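Each subunit of a heterodimeric triplet polymerase ribozyme was represented by a PCR-built, transcribed mutant library that underwent triplicate single-round in vitro selection with frozen incubation at −7 °C. Extended constructs were recovered by gel excision, streptavidin-bead capture and RT-PCR, and Illumina sequencing of input and output libraries kept genotypes with ≥10 input reads and ≥1 read per output. Fitness is the logarithm of genotype enrichment relative to wild-type enrichment, from inverse-variance-weighted replicate averages, with a logarithm base of 2.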
As to U9A A21U U55A C85G G112C U145A, the “polymerase ribozyme fitness (log ratio)” value was no more than -4.2.
As to C10A A12G A23C U55A, the “polymerase ribozyme fitness (log ratio)” value is no more than -4.2.
Regarding C8U G59C, the “polymerase ribozyme fitness (log ratio)” value is -2.99.
Consider U9C A12G A21U G42U C51G U53A C96A, for which the “polymerase ribozyme fitness (log ratio)” value was no more than -4.2.
Consider C8U G81C, for which the “polymerase ribozyme fitness (log ratio)” value is -3.94.
C8G U55A: the “polymerase ribozyme fitness (log ratio)” value is -2.91.
Turning to C8G C85U G88U U145C, the “polymerase ribozyme fitness (log ratio)” value was no more than -4.2.
As for C8U G42C C51U U61G C95A C125G U127G A137U C149G, the “polymerase ribozyme fitness (log ratio)” value was no more than -4.2.
For the variant C8U A98U U135G U148C, the “polymerase ribozyme fitness (log ratio)” value is no more than -4.2.
With C8G C35U C85G G88U U134A the figure was no more than -4.2; with U9G A29G A47C U53A U55G G124C G133C G143A, no more than -4.2; with C8U A28U G58A G74C U127G G133C A142U C149G, no more than -4.2.
As to U9C A23U G58U A73U C79A G83C G86A A107G G141C, the “polymerase ribozyme fitness (log ratio)” value is no more than -4.2.
Take U9C A12U C27G G48A G74A G88A: the “polymerase ribozyme fitness (log ratio)” value was no more than -4.2.
Turning to C10A A12U G80C G94A, the “polymerase ribozyme fitness (log ratio)” value is no more than -4.2.
As for C10A A12U A41G C96A A107C C114A, the figure is no more than -4.2; as for U9G A29C G59A C76U C87G A120C, no more than -4.2.
C8U U13C A22G C93U G126A: the “polymerase ribozyme fitness (log ratio)” value is -1.08.
Take U9A G59A A60C C93U: the “polymerase ribozyme fitness (log ratio)” value was no more than -4.2.
With U9G A23C U56A A73U G86C the figure was no more than -4.2; with C8G G143C, -4.08.
On to C8U A106G, for which the “polymerase ribozyme fitness (log ratio)” value was -2.98.
In the case of U9A C76U C85U C132U G133C, the “polymerase ribozyme fitness (log ratio)” value was no more than -4.2.
In the case of C8G G25C U33C C93U G124C, the “polymerase ribozyme fitness (log ratio)” value was no more than -4.2.
Consider U9A C18G A52G G58C A138G, for which the “polymerase ribozyme fitness (log ratio)” value is no more than -4.2.
Turning to U9A A91C C116G U148A, the “polymerase ribozyme fitness (log ratio)” value is -3.93.
For C10A A17U C36U C76U G84U U101A U104G C108U A121C, the “polymerase ribozyme fitness (log ratio)” value is no more than -4.2.
As for U9G C18U U45G G48A C76U, the figure is no more than -4.2; as for C8U C43U C85U G100A A142U, no more than -4.2; as for U9G A142G, no more than -4.2.
In the case of U9A A16G U45A C57A C75G G83U G92A, the “polymerase ribozyme fitness (log ratio)” value was no more than -4.2.
Regarding C8U G83U A97G A142U, the “polymerase ribozyme fitness (log ratio)” value was -4.17.
As for C8G C125A, the figure is -3.82.
For U9C A22C C54U G71U G84A C95A A98U C108A C114U A115C, the “polymerase ribozyme fitness (log ratio)” value was no more than -4.2.
U9A C32A U33G A49U C51U U53A C54U G84U C103A C108G C118G C149U: the “polymerase ribozyme fitness (log ratio)” value is no more than -4.2.
For the variant U9G A16G C18A C63U, the “polymerase ribozyme fitness (log ratio)” value is no more than -4.2.
With U9A A23C C32U C72G G80A G81A, the “polymerase ribozyme fitness (log ratio)” value was no more than -4.2.
For U9C A73U, the “polymerase ribozyme fitness (log ratio)” value is -4.1.
For the variant C8U G141C, the “polymerase ribozyme fitness (log ratio)” value is -2.78.
For the variant C8U U53A, the “polymerase ribozyme fitness (log ratio)” value is -3.41.
Turning to U9A A39C U53G G92A G112C A113G C149G, the “polymerase ribozyme fitness (log ratio)” value is no more than -4.2.
With C8U C54U U56C C85A G92C the figure was no more than -4.2.
Consider C8U U15A G58U C69A C85A G124C, for which the “polymerase ribozyme fitness (log ratio)” value is -3.61.
Consider C8G C79A A91U A107C G124C U144C, for which the “polymerase ribozyme fitness (log ratio)” value is no more than -4.2.
In the case of U9A C93A, the “polymerase ribozyme fitness (log ratio)” value was -3.87.
Turning to C8U G84U, the “polymerase ribozyme fitness (log ratio)” value was -4.13.
Consider C8G G34U A73C C85G U148G, for which the “polymerase ribozyme fitness (log ratio)” value is no more than -4.2.
With U9A A20U A28U C79A C87U U139A, the “polymerase ribozyme fitness (log ratio)” value is no more than -4.2.
With C8U A21C G25U A97U the figure was no more than -4.2.
With C8U C38U G48A A60C C72G C96A C99U C114G U139G U148G the figure was no more than -4.2; with U9A C96U A110C, no more than -4.2; with C8U G83C C125U, no more than -4.2.
With C8U C75A G86U A91U A122G G136A, the “polymerase ribozyme fitness (log ratio)” value was no more than -4.2.
Take U9C A16U A21G G70C G92U G143U U145G: the “polymerase ribozyme fitness (log ratio)” value is no more than -4.2.
Regarding C8U G88U G92A, the “polymerase ribozyme fitness (log ratio)” value was no more than -4.2.
As for U9C A37G G42C A73U G92C C103U, the figure is no more than -4.2.
U9G C32U C38U A49C G58A A60U C87G C95U G133U A142U: the “polymerase ribozyme fitness (log ratio)” value was no more than -4.2.
As for U9G U139C, the “polymerase ribozyme fitness (log ratio)” value is no more than -4.2.
As for U9G C38U C54U C57A A60G, the figure is no more than -4.2.
Take U9A C35U U55A A91C: the “polymerase ribozyme fitness (log ratio)” value was no more than -4.2.
As for U9C U15G C54A G67C G84A G117A, the “polymerase ribozyme fitness (log ratio)” value was no more than -4.2.
Turning to U9G C27G A28C A47U G70A A91C, the “polymerase ribozyme fitness (log ratio)” value is no more than -4.2.
Regarding C10A A22G G46A C54U C75G G83U C95A, the “polymerase ribozyme fitness (log ratio)” value is no more than -4.2.
C8U A41C G46C G71A G83U C116G: the “polymerase ribozyme fitness (log ratio)” value was no more than -4.2.
With C8U U56A the figure was -3.09; with U9G A49U C85U, no more than -4.2.
Regarding U9C U33G A52C C93G A110U, the “polymerase ribozyme fitness (log ratio)” value is no more than -4.2.
Turning to U9C C14U C76A C87G, the “polymerase ribozyme fitness (log ratio)” value is no more than -4.2.
For C10A A16G C32G G50A G133C, the “polymerase ribozyme fitness (log ratio)” value is no more than -4.2.
Regarding U9G C87U, the “polymerase ribozyme fitness (log ratio)” value is -4.11.
Turning to U9C A21U G48A A91U C99U, the “polymerase ribozyme fitness (log ratio)” value is no more than -4.2.
Turning to C8U A17G G84U G133C, the “polymerase ribozyme fitness (log ratio)” value was no more than -4.2.
C8U A40C A41G G50A U56A C93A: the “polymerase ribozyme fitness (log ratio)” value was no more than -4.2.
Consider C8U A26U A120G C125U, for which the “polymerase ribozyme fitness (log ratio)” value was no more than -4.2.
In the case of U9A A22C A37U U45A U53A G84A A147U, the “polymerase ribozyme fitness (log ratio)” value is no more than -4.2.
As for C8G G42C G50C A91C C93A, the “polymerase ribozyme fitness (log ratio)” value was no more than -4.2.
As for U9G A52G C72G C96U C105A A115G U127C G133U, the figure is no more than -4.2.
Turning to U9G C27G U31G U61G C75G G94A C105U, the “polymerase ribozyme fitness (log ratio)” value is no more than -4.2.
U9G C36U C76A G94A: the “polymerase ribozyme fitness (log ratio)” value is no more than -4.2.
As for U9A U15C C35U G71A C72U U77G C87A A119U G124C, the “polymerase ribozyme fitness (log ratio)” value is no more than -4.2.
Take U9G G88C C99A A119U: the “polymerase ribozyme fitness (log ratio)” value was no more than -4.2.
With C8U U15G A17G A30G U44G C76A C87A, the “polymerase ribozyme fitness (log ratio)” value is no more than -4.2.
For the variant U9A, the “polymerase ribozyme fitness (log ratio)” value was -2.7.
With U9C the figure was -1.27.
